Source: patent CN111333730A (NANJING RONGJIEKANG BIOTECHNOLOGY CO LTD, dated 2020)

Target: T1, 人源EpCAM重组胞外结构域蛋白 (human, UniProt P16422 24-265)
T1 construct: range 24-265; Made in-house in 293F cells from pcDNA3.4; coated on ELISA plates; also called EpCAM重组蛋白; 人源重组EpCAM
T1 sequence: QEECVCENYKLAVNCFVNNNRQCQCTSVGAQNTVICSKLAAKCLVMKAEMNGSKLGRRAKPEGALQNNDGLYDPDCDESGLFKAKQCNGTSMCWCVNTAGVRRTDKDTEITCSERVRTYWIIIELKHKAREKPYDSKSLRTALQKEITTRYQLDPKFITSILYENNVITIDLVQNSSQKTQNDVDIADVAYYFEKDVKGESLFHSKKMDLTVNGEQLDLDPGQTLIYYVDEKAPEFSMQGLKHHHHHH
Experiment: ELISA, coated human recombinant EpCAM, anti-HA-HRP detection

EC50: 1.96 nM
B1: 单域抗体 4C9 (VHH)
VHH: ESGGGSVQAGGSLRLSCAASEYTWSTTCMGWFRQAPGKEREGVAALYTRRGSTYYADSVKGRFTISRDNAENTVYLQMNSLKPEDTAMYYCASGPSTDFSCDYRRSNGYNYWGQGTQVTVSS
